Reference: PMC2173397

Target: T1, Apaf-1 (human (endogenous in HeLa)), O14727
T1 chain: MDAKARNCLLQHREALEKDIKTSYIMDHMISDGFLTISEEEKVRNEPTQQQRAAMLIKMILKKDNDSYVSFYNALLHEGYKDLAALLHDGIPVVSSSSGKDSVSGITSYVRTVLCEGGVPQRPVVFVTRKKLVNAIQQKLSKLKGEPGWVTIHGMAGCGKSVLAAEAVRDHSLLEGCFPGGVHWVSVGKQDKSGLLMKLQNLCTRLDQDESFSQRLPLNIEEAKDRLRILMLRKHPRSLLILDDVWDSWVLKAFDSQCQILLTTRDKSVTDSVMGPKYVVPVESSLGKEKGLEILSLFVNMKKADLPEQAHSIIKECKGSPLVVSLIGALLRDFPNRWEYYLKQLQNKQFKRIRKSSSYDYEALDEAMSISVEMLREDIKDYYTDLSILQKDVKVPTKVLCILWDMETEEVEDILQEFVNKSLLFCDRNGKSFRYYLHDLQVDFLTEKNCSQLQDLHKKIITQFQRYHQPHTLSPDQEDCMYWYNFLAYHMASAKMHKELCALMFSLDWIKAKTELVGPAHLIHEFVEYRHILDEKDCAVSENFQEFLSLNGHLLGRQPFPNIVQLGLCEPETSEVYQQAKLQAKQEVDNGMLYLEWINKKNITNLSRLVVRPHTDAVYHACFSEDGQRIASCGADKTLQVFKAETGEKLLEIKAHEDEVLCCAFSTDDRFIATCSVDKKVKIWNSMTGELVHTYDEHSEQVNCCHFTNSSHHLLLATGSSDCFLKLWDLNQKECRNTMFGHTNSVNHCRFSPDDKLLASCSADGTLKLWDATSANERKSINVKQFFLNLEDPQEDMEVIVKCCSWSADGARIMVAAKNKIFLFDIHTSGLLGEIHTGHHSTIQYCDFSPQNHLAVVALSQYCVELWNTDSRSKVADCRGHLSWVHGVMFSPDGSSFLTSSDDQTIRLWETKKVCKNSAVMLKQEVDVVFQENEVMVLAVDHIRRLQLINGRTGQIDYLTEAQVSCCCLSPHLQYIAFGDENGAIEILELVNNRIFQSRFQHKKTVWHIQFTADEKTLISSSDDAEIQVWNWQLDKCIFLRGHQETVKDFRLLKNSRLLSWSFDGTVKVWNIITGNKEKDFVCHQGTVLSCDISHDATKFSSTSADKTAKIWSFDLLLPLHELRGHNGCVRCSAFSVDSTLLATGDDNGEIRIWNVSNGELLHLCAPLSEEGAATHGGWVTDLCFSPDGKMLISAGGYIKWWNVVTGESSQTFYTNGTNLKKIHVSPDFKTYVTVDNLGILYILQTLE
Assay: SEC
Conditions: remark: other sources report otherwise

percent recruited to the high Mr complex: 50%
B1: caspase-9, P55211 1-416 (natural protein)
chain: MDEADRRLLRRCRLRLVEELQVDQLWDALLSRELFRPHMIEDIQRAGSGSRRDQARQLIIDLETRGSQALPLFISCLEDTGQDMLASFLRTNRQAAKLSKPTLENLTPVVLRPEIRKPEVLRPETPRPVDIGSGGFGDVGALESLRGNADLAYILSMEPCGHCLIINNVNFCRESGLRTRTGSNIDCEKLRRRFSSLHFMVEVKGDLTAKKMVLALLELAQQDHGALDCCVVVILSHGCQASHLQFPGAVYGTDGCPVSVEKIVNIFNGTSCPSLGGKPKLFFIQACGGEQKDHGFEVASTSPEDESPGSNPEPDATPFQEGLRTFDQLDAISSLPTPSDIFVSYSTFPGFVSWRDPKSGSWYVETLDDIFEQWAHSEDLQSLLLRVANAVSVKGIYKQMPGCFNFLRKKLFFKTS
